The results in this text go back to the Immune Epitope Database (IEDB).

One assay concerns the target HLA-A*02:06. Kind of assay: IEDB peptide-MHC binding, purified MHC/competitive/radioactivity; filed as Kd, often an IC50 or EC50 that approximates it; ≥ and ≤ were set here for values at or beyond the usual limits of such assays.
The target of another assay is HLA-A*02:03. The description is as above.
A further assay addresses HLA-A*02:02. Described as above.
A further assay has as its target HLA-A*69:01. Kind of assay: IEDB peptide-MHC binding, purified MHC/direct/fluorescence; filed as Kd, often an IC50 or EC50 that approximates it; ≥ and ≤ were set here for values at or beyond the usual limits of such assays.
In another assay the target is HLA-A*02:01. The description is as above.
For the next assay, the target named is HLA-B*15:01. The description is as above.
A further assay concerns the target HLA-A*24:02. Kind of assay: IEDB peptide-MHC binding, purified MHC/competitive/radioactivity; filed as Kd, often an IC50 or EC50 that approximates it; ≥ and ≤ were set here for values at or beyond the usual limits of such assays.
The target in a further assay is HLA-A*23:01. The assay is described as above. The following applies: source organism: Dengue virus 4 Philippines/H241/1956.
A further assay deals with HLA-A*32:01. The assay is described as above.
The mark [1] stands for this setting: source organism: Vaccinia virus WR.
The mark [2] stands for this setting: source organism: Cryptosporidium parvum.
The mark [3] stands for this setting: source organism: Rickettsia conorii.
The mark [4] stands for this setting: source organism: Dengue virus 4 Philippines/H241/1956.
[5] abbreviates: source organism: Dengue virus 1 Brazil/97-11/1997.
The mark [6] stands for this setting: source organism: Salmonella enterica subsp. enterica serovar Typhimurium.
The mark [7] stands for this setting: source organism: SARS coronavirus Tor2.

By Kd is commonly meant the equilibrium constant for the complex coming apart. Consider FIQWTGGNI, for which the results for the Kd in the assay with HLA-A*02:06 (setting [1]), in the assay with HLA-A*02:03 (setting [1]) and in the assay with HLA-A*02:02 (setting [1]) were 5910 nM, 54.7 nM and 683 nM, respectively.

Turning to FAFIDFSKST, the equilibrium dissociation constant (Kd) came to 1410 nM with HLA-A*02:06 (setting [1]), 2410 nM with HLA-A*02:03 (setting [1]) and 11800 nM in the assay with HLA-A*02:02 (setting [1]).

Consider AMLKSKNINI, for which the dissociation constant (Kd) with HLA-A*02:06 (setting [1]) was 200 nM; with HLA-A*02:03 (setting [1]) it was 223 nM; with HLA-A*02:02 (setting [1]), 1650 nM.

SIRCVKYLL: the dissociation constant Kd was determined as 2880 nM in the assay with HLA-A*02:06 (setting [1]), 55.7 nM with HLA-A*02:03 (setting [1]) and 107 nM in the assay with HLA-A*02:02 (setting [1]).

Regarding KMFNSVGGA, the equilibrium dissociation constant (Kd) was not below 20000 nM with HLA-A*69:01 (setting [2]) and 26 nM with HLA-A*02:01 (setting [2]).

Consider MICCDSRIVV, for which the figures for the Kd with HLA-A*02:06 (setting [1]), with HLA-A*02:03 (setting [1]) and with HLA-A*02:02 (setting [1]) were 51.9 nM, 392 nM and 665 nM, respectively.

Regarding YVIPDELIDV, the equilibrium dissociation constant (Kd) with HLA-A*02:06 (setting [1]) was determined as 12.3 nM; with HLA-A*02:03 (setting [1]), 13.9 nM; with HLA-A*02:02 (setting [1]) it was 18.1 nM.

As for FASADNHPKM, the Kd with HLA-A*02:06 (setting [1]) was not below 69800 nM; in the assay with HLA-A*02:03 (setting [1]) it was not below 47400 nM; in the assay with HLA-A*02:02 (setting [1]), not below 70000 nM.

Regarding EIKAEMQLKI, the Kd with HLA-A*02:06 (setting [1]) stood at 14300 nM; in the assay with HLA-A*02:03 (setting [1]), 4760 nM; with HLA-A*02:02 (setting [1]), 16900 nM.

For the sequence IIMFDAEKL, the dissociation constant Kd came out at 3350 nM with HLA-B*15:01 (setting [3]) and 1110 nM with HLA-A*69:01 (setting [3]).

For the sequence SLGKSPLPSL, the figures for the Kd with HLA-A*02:06 (setting [1]), with HLA-A*02:03 (setting [1]) and in the assay with HLA-A*02:02 (setting [1]) were 1430 nM, 46.8 nM and 4.07 nM, respectively.

As to LANERYRSA, the Kd with HLA-A*02:06 (setting [1]) was not below 77100 nM; with HLA-A*02:03 (setting [1]) it was 554 nM; with HLA-A*02:02 (setting [1]), not below 31300 nM.

Consider DVCKKNLDL, for which the Kd with HLA-A*02:06 (setting [1]) is 16300 nM; with HLA-A*02:03 (setting [1]) it was 8020 nM; with HLA-A*02:02 (setting [1]), not below 25400 nM.

For the sequence EYPKTKLTDW, the results for the Kd with HLA-A*24:02 (setting [4]) and in the assay with HLA-A*23:01 were 954 nM and 2550 nM, respectively.

For the sequence KILLVAVSI, the Kd in the assay with HLA-A*32:01 (source organism: Vaccinia virus Copenhagen) worked out at 1.54 nM.

As to AFLPWHRLF, the Kd with HLA-A*24:02 (source organism: Homo sapiens) is 20 nM.

As for FIISTLNKI, the figures for the dissociation constant (Kd) with HLA-A*02:06 (setting [1]), with HLA-A*02:03 (setting [1]) and with HLA-A*02:02 (setting [1]) were 5.84 nM, 0.418 nM and 1.65 nM, respectively.

Take IINSVSIIL: the results for the Kd with HLA-A*02:06 (setting [1]), with HLA-A*02:03 (setting [1]) and with HLA-A*02:02 (setting [1]) were not below 25900 nM, 2900 nM and 705 nM, respectively.

On to AGILKRWGQL, for which the dissociation constant (Kd) with HLA-A*32:01 (setting [4]) was 4440 nM.

As to WLVHKQWFLD, the Kd with HLA-A*32:01 (setting [5]) is 2070 nM.

As for AVIIMAINV, the results for the Kd with HLA-A*02:06 (setting [1]), in the assay with HLA-A*02:03 (setting [1]) and with HLA-A*02:02 (setting [1]) were 65.2 nM, 2760 nM and 9070 nM, respectively.

Turning to HLMSDNPKA, the Kd with HLA-A*02:06 (setting [1]) is 523 nM; with HLA-A*02:03 (setting [1]) it was 279 nM; in the assay with HLA-A*02:02 (setting [1]), 56.9 nM.

With DAEFVMCLEA, the dissociation constant (Kd) with HLA-A*02:06 (setting [1]) is 12700 nM; with HLA-A*02:03 (setting [1]), 7310 nM; in the assay with HLA-A*02:02 (setting [1]) it was 2410 nM.

For the sequence GPISTLWEGN, the dissociation constant (Kd) in the assay with HLA-A*32:01 (source organism: Dengue virus 2 Jamaica/1409/1983) was 9040 nM.

Take FVDTMSIYIA: the dissociation constant (Kd) with HLA-A*02:06 (setting [1]) came to 1100 nM; with HLA-A*02:03 (setting [1]), 2390 nM; with HLA-A*02:02 (setting [1]), 154 nM.

As to PTPKKMNIVT, the dissociation constant Kd in the assay with HLA-A*02:06 (setting [1]) was not below 69800 nM; in the assay with HLA-A*02:03 (setting [1]) it was not below 55700 nM; with HLA-A*02:02 (setting [1]) it was not below 65800 nM.

In the assay with HLA-B*15:01 (setting [6]), IQRDQVTDY returned a dissociation constant (Kd) of 239 nM.

With LLLEWLAEVV, the dissociation constant (Kd) with HLA-A*02:06 (setting [7]) worked out at 0.525 nM; with HLA-A*02:03 (setting [7]), 0.813 nM; with HLA-A*02:02 (setting [7]) it was 0.31 nM.

With LTARATWATN, in the assay with HLA-A*32:01 (setting [5]), the Kd is not below 44400 nM.

On to IIAVFDSKL, for which the dissociation constant Kd with HLA-A*02:06 (setting [1]) was found to be 98.6 nM; with HLA-A*02:03 (setting [1]) it was 107 nM; with HLA-A*02:02 (setting [1]), 44 nM.

AYMIGQTGI: in the assay with HLA-A*24:02 (setting [4]), the Kd was determined as 93 nM.

With NVTYNIKPV, the Kd is 855 nM with HLA-A*02:06 (setting [1]), 153 nM with HLA-A*02:03 (setting [1]) and not below 22800 nM with HLA-A*02:02 (setting [1]).

Consider IIIFFIVLI, for which, in the assay with HLA-A*32:01 (setting [1]), the Kd amounted to 13.7 nM.

For KASTISWMM, the results for the Kd with HLA-A*02:06 (setting [1]), in the assay with HLA-A*02:03 (setting [1]) and with HLA-A*02:02 (setting [1]) were 797 nM, 556 nM and 429 nM, respectively.

With ELLSHVGQA, the Kd in the assay with HLA-A*69:01 (setting [6]) turned out to be 63.1 nM; with HLA-A*02:01 (setting [6]), 3590 nM.

For the sequence SLGILCVSI, the Kd with HLA-A*32:01 (setting [5]) stood at 238 nM.
